Measured values from paper PMC6528599.

Target: T1, GlaR (YugA) (Lactococcus lactis IL1403) (UniProt Q7DAT6)
T1 sequence: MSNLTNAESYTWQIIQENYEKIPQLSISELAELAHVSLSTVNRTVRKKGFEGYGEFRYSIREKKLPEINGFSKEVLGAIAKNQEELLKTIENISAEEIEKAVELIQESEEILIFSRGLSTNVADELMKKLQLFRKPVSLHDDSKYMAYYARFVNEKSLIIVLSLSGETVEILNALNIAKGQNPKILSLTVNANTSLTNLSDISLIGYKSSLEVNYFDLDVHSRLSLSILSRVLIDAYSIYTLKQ
Assay: EMSA
Conditions: EMSA: 1 nM DNA, 10 mM Tris-HCl pH 8.5, 10 mM MgCl2, 100 mM KCl, 0.1 mg/ml BSA (printed as 10x binding buffer), 250 mM galactose, 20 ul, 20 min at 37 C; 5% PAGE …

Row | Sequence | binding
1 | GGACATTGGCATCTACTTGAAGAAGAAGCAGGAACATGGTTAAATATTGACGGATTCCATATGGGTGTAGGTGGAGATGATTCATGGAGTCCAAGTGTCGCTCAGGAATATTTATTGACAAAGGGAAATTATCATTATGAAGTTAGTTTTAAATTAACGTGATGATCCAAATTTTCAAGAATTTGATATAATATAGAGAAAATGGAGGTTCTTATGACGGTTTTAGTTCTTGGTGGAGCAGGATACGTGGGAAGTCACGCGGTAGATATGCTTCTTAAACGTGGTTACGATGTGGCAG (double strand) [galE upstream region] | no binding
2 | CCATTACATTTTCATGACGATTACATACAAAAAAAGCTCAAAAATTTGAGCTTTTTTTTTCGAATTTTAGATAATTAACTAGTAACCTTTTGGATGACTTTGGTGCCATTTCCAAGCGTTCGTAATAATGTGCTCTAAATCATTTTGTGCTTTCCAACCCAAAATTTCACCAGCTTTTGTTGAATCAGCAACCAGCTCATCTGGGTCTCCTGCACGGCGTTCACCCATTTGGCTTGGAATTTCTTTACCTGTTACTTTTCGTGCGGTTTCAAGCACTTCAAG (double strand) | no binding
